No end group written: not given here.
B1: outer membrane porin OmpF (natural protein)
chain: AEIYNKDGNKVDLYGKAVGLHYFSKGNGENSYGGNGDMTYARLGFKGETQINSDLTGYGQWEYNFQGNNSEGADAQTGNKTRLAFAGLKYADVGSFDYGRNYGVVYDALGYTDMLPEFGGDTAYSDDFFVGRVGGVATYRNSNFFGLVDGLNFAVQYLGKNERDTARRSNGDGVGGSISYEYEGFGIVGAYGAADRTNLQEAQPLGNGKKAEQWATGLKYDANNIYLAANYGETRNATPITNKFTNTSGFANKTQDVLLVAQYQFDFGLRPSIAYTKSKAKDVEGIGDVDLVNYFEVGATYYFNKNMSTYVDYIINQIDSDNKLGVGSDDTVAVGIVYQF

How the values were obtained:
Experiment in all cases: native MS
[1] = biological target: Vibrio sp. N418 semiSWEET (Vibrio sp. N418)
[2] = biological target: the molecule itself
[3] = biological target: B1

Vibrio sp. N418 semiSWEET (natural protein)
stoichiometry N [1]: 2

B1
stoichiometry N [2]: 3

B2: pentameric ligand-gated ion channel ELIC (natural protein)
chain: APADNAADARPVDVSVSIFINKIYGVNTLEQTYKVDGYIVAQWTGKPRKTPGDKPLIVENTQIERWINNGLWVPALEFINVVGSPDTGNKRLMLFPDGRVIYNARFLGSFSNDMDFRLFPFDRQQFVLELEPFSYNNQQLRFSDIQVYTENIDNEEIDEWWIRKASTHISDIRYDHLSSVQPNQNEFSRITVRIDAVRNPSYYLWSFILPLGLIIAASWSVFWLESFSERLQTSFTLMLTVVAYAFYTSNILPRLPYTTVIDQMIIAGYGSIFAAILLIIFAHHRQAMGVEDDLLIQRCRLAFPLGFLAIGCVLVIRGITL
stoichiometry N [2]: 5

B3: OBS1 peptide (peptide mimic of colicin OmpF Binding Sequence 1) (peptide)
peptide: SGGDGRGHNTGAHSTSG-NH2
Kd [3]: 690 nM | stoichiometry N [3]: 3

Reference: publication PMC4856209 (Nature methods, 2016)
